The target in test [1] is T1, MLO-Y4 cell surface proteins (Mus musculus, UniProt Q9CYR0).
T1 construct: endogenous in cells; host or cells: MLO-Y4
T1 sequence (Q9CYR0 17-152): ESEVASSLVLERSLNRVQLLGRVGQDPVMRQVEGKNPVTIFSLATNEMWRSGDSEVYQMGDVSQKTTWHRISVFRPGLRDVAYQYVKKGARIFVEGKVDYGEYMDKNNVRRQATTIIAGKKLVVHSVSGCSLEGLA
Nature of the test: Crosslinking/co-immunoprecipitation/mass spectrometry (TMT quantitative proteomics) to identify irisin receptors. It counts as binding. Particulars: co-precipitated protein Ssbp1 (SSBP_MOUSE). The procedure, abridged:
(§1)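 Relative protein abundance came from 6-plex TMT MS3 quantitation on an Orbitrap Fusion Lumos, after in-gel trypsin digestion of Coomassie-stained SDS-PAGE lanes. Input was a Ni-NTA pulldown (250 mM imidazole elution) of lysates from murine MLO-Y4 cells. These cells were treated on ice with His-tagged irisin or adipsin (10 nM, 20 min) in serum-free medium, then crosslinked with 1.5 mM DTSSP for 30 min.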

Test [2] concerns the target T2, MLO-Y4 cell surface proteins (Mus musculus, UniProt O88689).
T2 construct: endogenous in cells; host or cells: MLO-Y4
T2 sequence (O88689 30-947): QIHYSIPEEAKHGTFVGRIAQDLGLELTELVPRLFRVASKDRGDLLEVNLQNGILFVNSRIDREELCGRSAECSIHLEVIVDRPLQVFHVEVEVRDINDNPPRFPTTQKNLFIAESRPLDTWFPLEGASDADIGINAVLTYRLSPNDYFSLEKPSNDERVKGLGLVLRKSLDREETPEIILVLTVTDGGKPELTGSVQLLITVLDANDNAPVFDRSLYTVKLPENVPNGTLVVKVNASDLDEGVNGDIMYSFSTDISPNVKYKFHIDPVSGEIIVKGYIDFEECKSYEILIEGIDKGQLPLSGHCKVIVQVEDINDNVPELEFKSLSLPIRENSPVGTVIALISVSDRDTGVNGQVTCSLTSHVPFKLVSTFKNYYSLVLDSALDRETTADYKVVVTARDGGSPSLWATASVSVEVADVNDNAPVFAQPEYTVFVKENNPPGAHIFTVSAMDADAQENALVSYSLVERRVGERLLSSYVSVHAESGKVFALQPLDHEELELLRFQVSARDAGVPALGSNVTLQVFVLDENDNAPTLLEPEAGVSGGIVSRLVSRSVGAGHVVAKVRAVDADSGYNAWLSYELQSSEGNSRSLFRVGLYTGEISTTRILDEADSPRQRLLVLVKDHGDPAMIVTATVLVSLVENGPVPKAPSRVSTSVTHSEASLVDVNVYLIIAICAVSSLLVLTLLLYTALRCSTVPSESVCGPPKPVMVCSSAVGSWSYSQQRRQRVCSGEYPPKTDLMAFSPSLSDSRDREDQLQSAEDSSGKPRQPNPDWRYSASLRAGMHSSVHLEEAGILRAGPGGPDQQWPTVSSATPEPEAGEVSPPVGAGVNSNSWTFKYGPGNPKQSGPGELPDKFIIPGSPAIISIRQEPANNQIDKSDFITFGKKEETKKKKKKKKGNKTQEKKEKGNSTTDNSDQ
Described as above. It counts as binding. To be noted: TMT ratio, Pcdha4 Protocadherin alpha-4. The procedure, abridged:
as §1

Results on one molecule are retold here after patent US20210063414A1, “METHODS FOR PREVENTING AND/OR TREATING BONE LOSS CONDITIONS BY MODULATING IRISIN” (Dana-Farber Cancer Institute, Inc., priority 2018, published 2021).

B1: irisin: secreted cleaved form of FNDC5; recombinant human/mouse irisin with C-terminal his tag produced in HEK293 cells (protein)
chain: DSPSAPVNVTVRHLKANSAVVSWDVLEDEVVIGFAISQQKKDVRMLRFIQEVNTTTRSCALWDLEEDTEYIVHVQAISIQGQSPASEPVLFKTPREAEKMASKNKDEVTMKE
modifications: left off: small tags and cut ends
notes: secreted cleaved form of FNDC5; recombinant human/mouse irisin with C-terminal his tag produced in HEK293 cells
B1: in test [1], the TMT signal-to-noise ratio amounted to 244.754 and the “irisin/adipsin TMT signal-to-noise ratio” value was found to be 0.566. Moreover, the irsin/adipsin in test [2] is listed as 4.39.
